From the supplement of paper PMC10126150
± gives the standard deviation of the averaged measurements.

System: ATP
Assay: switch fluorescence ratio, 500 uM ATP over buffer (Cy3 cluster intensity, sum of 5 cycles each) (fold (ratio)); higher = stronger signal-on switching upon ATP binding; sequences stand for … in TCGTCGGCAGCGTCAGATGTGTATAAGAGACAGTTTTTTTTTTTTTTTTTTTTTTTTT…TC
Conditions: aptamer strand: ATP DNA aptamer (quencher-CACCTGGGGGAGTATTGCGGAGGAAGG + anchor), 100 nM annealed; ATP concentration: 500 uM
Procedure, shortened: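 Per cluster, summed Cy3 intensity from the target cycles was divided by that from the buffer cycles to give the fluorescence ratio, then averaged per switch-domain sequence. Clusters outside 100-1000 RFU were excluded. The Cy3-labelled switching-strand clusters, on a modified Illumina MiSeq flow-cell, were annealed to 100 nM quencher-labelled ATP aptamer and imaged in selection buffer, then after 15 min with 500 uM ATP at 22 °C, for five cycles with NaOH stripping and re-annealing between them.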
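Further: ATP exposure 15 min at 22 °C before imaging.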

Sequence | switch fluorescence ratio
ATTTTGGTCG | 0.982 ± 0.082
ATTTTGTATT | 0.99 ± 0.034
ATTTTGTGGT | 1.01 ± 0.011
ATTTTTAGAG | 1.01 ± 0.023
ATTTTTATAA | 0.987 ± 0.025
ATTTTTCTCA | 1.04 ± 0.062
ATTTTTGAAG | 1.02 ± 0.044
ATTTTTGAAT | 1.01 ± 0.029
ATTTTTGGC | 1.03 ± 0.06
ATTTTTGGGG | 1.006 ± 0.0088
ATTTTTGTTG | 0.9883 ± 0.008
ATTTTTTAGA | 0.989 ± 0.021
ATTTTTTATT | 0.9923 ± 0.0097
ATTTTTTTTA | 0.974 ± 0.024
CAAAAACGTT | 1.02 ± 0.024
CAAAAAGGAG | 0.994 ± 0.019
CAAAACGGGG | 1.15 ± 0.18
CAAAAGATGT | 1.01 ± 0.05
CAAAAGCGAG | 1.014 ± 0.0055
CAAAAGGAGT | 0.992 ± 0.034
CAAAAGGGGG | 0.9818 ± 0.005
CAAAAGTGGG | 0.9928 ± 0.0018
CAAAATTGCC | 0.954 ± 0.11
CAAAGAAAGA | 0.991 ± 0.032
CAAAGAAAGG | 0.95 ± 0.021

Sequence | switch fluorescence ratio
CAAAGAGGAT | 0.991 ± 0.022
CAAAGCGCGG | 0.997 ± 0.055
CAAAGGAGGT | 1.03 ± 0.096
CAAAGGATGA | 0.988 ± 0.002
CAAATAAGTG | 0.9842 ± 0.0088
CAAATAAGTT | 1.02 ± 0.029
CAAATAATGA | 0.9642 ± 0.0036
CAAATAGCTA | 1.0363 ± 0.00014
CAAATCGTTT | 0.985 ± 0.038
CAAATGAAGT | 1.02 ± 0.018
CAAATGGTTT | 1.05 ± 0.08
CAAATGTAGC | 1.017 ± 0.0081
CAAATGTTGG | 0.983 ± 0.026
CAAATTAGGA | 0.9764 ± 0.0073
CAAATTCTGT | 1.009 ± 0.009
CAAATTGCTT | 1.01 ± 0.038
CAAATTTGGC | 0.986 ± 0.027
CAACAACGCG | 0.992 ± 0.02
CAACAGTTTT | 1 ± 0.012
CAACCGTTTC | 1.27 ± 0.028
CAACGGGGCG | 0.999 ± 0.028
CAACGGGTTA | 0.998 ± 0.0077
CAACTACGGC | 1.09 ± 0.05
CAACTTTACC | 1.16 ± 0.027
CAAGAAAGTG | 0.9875 ± 0.0071

Sequence | switch fluorescence ratio
CAAGACACGT | 0.977 ± 0.032
CAAGAGGGGG | 0.978 ± 0.043
CAAGAGTGGG | 1.01 ± 0.032
CAAGATCTGT | 0.9925 ± 0.0031
CAAGATTGTT | 1.02 ± 0.017
CAAGCCAGTT | 0.9985 ± 0.0043
CAAGCGTTTC | 1.06 ± 0.024
CAAGCTTGGG | 1 ± 0.034
CAAGGAATGG | 0.995 ± 0.035
CAAGGACGAT | 1.004 ± 0.0015
CAAGGCATTC | 1.32 ± 0.059
CAAGGGGGG | 0.977 ± 0.043
CAAGGGGTT | 1.02 ± 0.068
CAAGGTAAAG | 0.992 ± 0.013
CAAGGTCGTA | 1 ± 0.029
CAAGTAAGCG | 1.003 ± 0.0011
CAAGTACATG | 1.2 ± 0.014
CAAGTAGGTC | 0.98 ± 0.061
CAAGTGGTTG | 0.984 ± 0.025
CAAGTGTACG | 1.01 ± 0.042
CAAGTTCTGC | 0.97 ± 0.053
CAAGTTGGCG | 0.995 ± 0.099
CAAGTTTGC | 1.08 ± 0.017
CAATAAGTTT | 1.01 ± 0.043
CAATACATAT | 1.07 ± 0.023

Sequence | switch fluorescence ratio
CAATAGCTAT | 1.06 ± 0.022
CAATAGTGTG | 0.973 ± 0.017
CAATAGTTGT | 0.996 ± 0.029
CAATATATCA | 0.999 ± 0.022
CAATATTAGA | 1.02 ± 0.07
CAATATTTGC | 0.975 ± 0.035
CAATCCATTG | 0.994 ± 0.024
CAATCCTTTT | 1.01 ± 0.018
CAATCTGATA | 0.99 ± 0.016
CAATCTGTTA | 0.989 ± 0.027
CAATGAGCCT | 1.04 ± 0.013
CAATGAGCTT | 0.9907 ± 0.0087
CAATGAGGAA | 1.02 ± 0.018
CAATGATAGG | 0.992 ± 0.017
CAATGATCTT | 1.02 ± 0.014
CAATGATGCT | 0.935 ± 0.018
CAATGATGGG | 1.0072 ± 0.00052
CAATGCCGAG | 0.9895 ± 0.0045
CAATGGAAGA | 0.989 ± 0.014
CAATGGCGTA | 1.013 ± 0.00084
CAATGGGCGA | 0.993 ± 0.011
CAATGGGCTC | 1.016 ± 0.0084
CAATGGGGCT | 1.02 ± 0.038
CAATGGTAGT | 0.9749 ± 0.0024
CAATGTAAGA | 0.989 ± 0.012
